Results on three molecules are retold here after patent US20110150884A1 (ST VINCENT S INSTITUTE OF MEDICAL RESEARCH, published 2011).

B2: sβc N346Q, soluble extracellular domain of human βc with the third N-glycosylation site removed (receptor, UniProt P32927 17-443, looked up)
chain: WERSLAGAEETIPLQTLRCYNDYTSHITCRWADTQDAQRLVNVTLIRRVNEDLLEPVSCDLSDDMPWSACPHPRCVPRRCVIPCQSFVVTDVDYFSFQPDRPLGTRLTVTLTQHVQPPEPRDLQISTDQDHFLLTWSVALGSPQSHWLSPGDLEFEVVYKRLQDSWEDAAILLSNTSQATLGPEHLMPSSTYVARVRTRLAPGSRLSGRPSKWSPEVCWDSQPGDEAQPQNLECFFDGAAVLSCSWEVRKEVASSVSFGLFYKPSPDAGEEECSPVLREGLGSLHTRHHCQIPVPDPATHGQYIVSVQPRRAEKHIKSSVNIQMAPPSLQVTKDGDSYSLRWETMKMRYEHIDHTFEIQYRKDTATWKDSKTETLQNAHSMALPALEPSTRYWARVRVRTSRTGYNGIWSEWSEARSWDTESVLPMW
modifications: N-linked carbohydrate at Asn58 (NAG-NAG-MAN) and Asn191 (NAG)
notes: extracellular domain; Intertwined homodimer; Cloned into pIBV5-His; also called sβc ΔN3; GM-CSF βc chain

The target of data set [1] is IL-3 receptor on cells: IL3Rα co-expressed with the βc4 Gpoly-A mutant (M7-βc) (human), P26951. Nature of the data set: cell-based or functional assay.
Data set [2] deals with the molecule itself. The experiment in a line: X-ray crystal structure, 3.3 Å. Here is the method: (§1) The structure was determined by molecular replacement using the method of Storoni et al, Acta Crystallogr. D 60:432, 2004.
(§2) A homology model of domain 2 of the alpha chain was built into this density. […] D Biol. Crystallogr. 50:760, 1994 and refinement using the method of Murshudov et al, Acta Crystallogr. D 53:240, 1997. […] During the final refinement step each subunit was treated as a rigid body for the purposes of TLS (translation, libration and screw rotation tensors) refinement to account for overall differences in displacements between the molecules and anisotropy in the data (Winn et al, Acta Crystallogr. D 57:122, 2001; Painter and Merritt, Acta Crystallogr. D 62:439, 2006).

Data set [3] has as its target B2. The experiment in a line: X-ray crystal structure, 3.3 Å. The procedure: as §1, §2
Data set [4] has as its target T1, wild-type sβc, soluble extracellular domain of human βc (human, UniProt P32927 17-443).
T1 construct: extracellular domain; Expressed in Sf21 cells
T1 sequence (looked up): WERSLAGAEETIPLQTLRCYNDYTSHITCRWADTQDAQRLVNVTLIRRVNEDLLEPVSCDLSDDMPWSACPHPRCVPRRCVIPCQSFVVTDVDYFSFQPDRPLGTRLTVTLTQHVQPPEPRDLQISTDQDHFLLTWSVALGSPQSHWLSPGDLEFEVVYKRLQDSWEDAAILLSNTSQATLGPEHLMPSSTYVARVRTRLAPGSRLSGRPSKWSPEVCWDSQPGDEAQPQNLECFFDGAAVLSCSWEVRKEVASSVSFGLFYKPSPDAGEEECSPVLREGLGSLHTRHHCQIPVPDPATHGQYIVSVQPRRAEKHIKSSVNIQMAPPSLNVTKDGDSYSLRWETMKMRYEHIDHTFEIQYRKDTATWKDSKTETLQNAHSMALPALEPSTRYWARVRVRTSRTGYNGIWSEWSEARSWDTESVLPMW
The experiment in a line: ternary complex formation of soluble proteins (all three present); wild type as the reference.

Sequence of IL-3 receptor on cells: IL3Rα co-expressed with the βc4 Gpoly-A mutant (M7-βc) (human), P26951 (P26951 19-378, change not shown): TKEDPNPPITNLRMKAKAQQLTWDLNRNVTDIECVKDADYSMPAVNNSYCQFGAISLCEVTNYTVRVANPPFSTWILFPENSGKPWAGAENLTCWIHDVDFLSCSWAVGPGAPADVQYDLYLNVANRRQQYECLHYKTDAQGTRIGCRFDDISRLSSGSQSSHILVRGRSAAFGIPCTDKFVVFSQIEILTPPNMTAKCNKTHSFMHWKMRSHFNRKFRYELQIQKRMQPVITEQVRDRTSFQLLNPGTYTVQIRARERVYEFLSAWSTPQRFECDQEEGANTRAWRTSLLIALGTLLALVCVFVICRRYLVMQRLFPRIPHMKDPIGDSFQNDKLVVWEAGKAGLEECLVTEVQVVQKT

B1: IL-3, P08700 20-152 (ligand, UniProt P08700 20-152, looked up)
chain: APMTQTTPLKTSWVNCSNMIDEIITHLKQPPLPLLDFNNLNGEDQDILMENNLRRPNLEAFNRAVKSLQNASAIESILKNLLPCLPLATAAPTRHPIHIKDGDWNEFRRKLTFYLKTLENAQAQQTTLSLAIF
modifications: here or on the partner: radio-iodinated (125I) in the COS cell binding assays
Regarding B1, in data set [1], the ED50 of proliferation of CTL-EN cells in response to IL-3 was 0.0103 µg/mL and the fold increase of ED50 against wild type βc stood at 413 fold.
Take B2: the binding result in data set [2] is reported as “binds”.

B3: sGM-CSFRα, soluble extracellular domain of the GM-CSF receptor alpha chain, expressed in Sf21 insect cells (receptor, human, UniProt P15509 23-320, looked up)
chain: EKSDLRTVAPASSLNVRFDSRTMNLSWDCQENTTFSKCFLTDKKNRVVEPRLSNNECSCTFREICLHEGVTFEVHVNTSQRGFQQKLLYPNSGREGTAAQNFSCFIYNADLMNCTWARGPTAPRDVQYFLYIRNSKRRREIRCPYYIQDSGTHVGCHLDNLSGLTSRNYFLVNGTSREIGIQFFDSLLDTKKIERFNPPSNVTVRCNTTHCLVRWKQPRTYQKLSYLDFQYQLDVHRKNTQPGTENLLINVSGDLENRYNFPSSEPRAKHSVKIRAADVRILNWSSWSEAIEFGSDDG
modifications: N-linked carbohydrate at Asn229 (modeled as NAG-NAG)
notes: extracellular domain; Cloned into the pIBV5-His vector; Residues 218-316 (domain 2) were traced in the crystal; also called GMRα
As for B3, the binding result in data set [3] and in data set [4] was “binds” in each case.
